Earlier results on one substance are cited in PMC8020814.

The target of the data set is C3b C3b (Homo sapiens) (UniProt P01024).
Chain of UniProt P01024 (P01024 566-670): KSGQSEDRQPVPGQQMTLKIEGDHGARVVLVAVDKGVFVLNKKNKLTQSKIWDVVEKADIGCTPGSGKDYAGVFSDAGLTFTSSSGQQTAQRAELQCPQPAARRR

For Factor H FH(1-4) (from UniProt P08603), the Kd is 11 µM.

As a reminder, the Kd is the concentration at which binding is half-saturated.
